Article PMC9371709 (Proceedings of the National Academy of Sciences of the …, 2022)
Values joined by “and” are separate entries in the source; they are usually repeats but may differ in a detail not shown here. Identical values can stand only once.

Columns and labels:
SEC-MALS = molecular target: the molecule itself; experiment: SEC-MALS
cryo-EM structure = molecular target: the molecule itself; experiment: cryo-EM structure

B1: human Twinkle helicase W315L (C-terminal his-tag Δ42, FL residues 43–684) (enzyme, UniProt Q96RR1 43-684, looked up)
chain: ETLQALDMPVLPVTATEIRQYLRGHGIPFQDGHSCLRALSPFAESSQLKGQTGVTTSFSLFIDKTTGHFLCMTSLAEGSWEDFQASVEGRGDGAREGFLLSKAPEFEDSEEVRRIWNRAIPLWELPDQEEVQLADTMFGLTKVTDDTLKRFSVRYLRPARSLVFPWFSPGGSGLRGLKLLEAKCQGDGVSYEETTIPRPSAYHNLFGLPLISRRDAEVVLTSRELDSLALNQSTGLPTLTLPRGTTCLPPALLPYLEQFRRIVFWLGDDLRSLEAAKLFARKLNPKRCFLVRPGDQQPRPLEALNGGFNLSRILRTALPAWHKSIVSFRQLREEVLGELSNVEQAAGLRWSRFPDLNRILKGHRKGELTVFTGPTGSGKTTFISEYALDLCSQGVNTLWGSFEISNVRLARVMLTQFAEGRLEDQLDKYDHWADRFEDLPLYFMTFHGQQSIRTVIDTMQHAVYVYDICHVIIDNLQFMMGHEQLSTDRIAAQDYIIGVFRKFATDNNCHVTLVIHPRKEDDDKELQTASIFGSAKASQEADNVLILQDRKLVTGPGKRYLQVSKNRFDGDVGVFPLEFNKNSLTFSIPPKNKARLKKIKDDTGPVAKKPSSGKKGATTQNSEICSGQAPTPDQPDTSKRSK
With B1 the “stoichiometry N” value (SEC-MALS) was ~8 and the “stoichiometry N” value (cryo-EM structure) was 7 and 8.
